Data set [1] has as its system bleomycin mouse model of pulmonary fibrosis. Description: Bleomycin mouse pulmonary fibrosis model. The conditions noted are these: for inflammation score: FIG. 9B; for fibrosis score: Masson staining, FIG. 10B; for lung tissue structures (HE staining): antibody 100 μg i.p. every other day, pirfenidone 300 mg/kg intragastric daily. Format: in vivo. The procedure: (§1) 6 to 8-week-old male C57BL/6J mice (purchased from Guangdong Sijiajingda Biotechnology Co., Ltd., license No.: SCXK (Guangdong) 2020-0052) were grouped, modeled, and administered according to the protocols shown in Tables 6 and 7 below. The modeling with bleomycin (Nippon Kayaku, 15 mg powder, and dose: 1.5 mg/kg) and silica (SiO2, sigma, USA, S5631-500 g, and dose: 2.5 mg/mouse) was started on day 0 (DO). The administration was started on day 1 (D1), and normal saline was adopted as a solvent for an antibody. A positive drug pirfenidone (Beijing Kangdini Pharmaceutical Co., Ltd., 100 mg capsule) was adopted in a positive control group, and the humanized antibody hu.CA1 (VH1−VL2) of the present application was adopted in an anti-IL-9 antibody group.
(§2) A body weight of each mouse was measured every day. After the bleomycin model group was administered for 21 d and the silica model group was administered for 30 d, mice were sacrificed to collect lung tissues. The lung tissues each were stained to detect pathological changes in the lung tissues. Specifically, a degree of alveolar inflammation was detected through HE staining (an HE staining kit was purchased from Shanghai Beyotime Biotechnology, C0105M). A degree of pulmonary fibrosis was detected through Masson staining (a Masson staining kit was purchased from Nanjing Jiancheng Institute of Biological Engineering, D026-1-2). Scoring criteria for the HE staining and Masson staining were shown in Table 8 and Table 9 below, respectively (as shown in references: Matute-Bello G, Downey G, Moore B B, et al. An official American Thoracic Society workshop report: features and measurements of experimental acute lung injury in animals. Am J Respir Cell Mol Biol. 2011; 44 (5): 725-738. doi: 10.1165/rcmb.2009-0210ST and Lee Hyun Ju, Goo Jin Mo, Kim Na Ra et al. Semiquantitative measurement of murine bleomycin-induced lung fibrosis in in vivo and postmortem conditions using microcomputed tomography: correlation with pathologic scores—initial results. [J].Invest Radiol, 2008, 43: 453-60).

For data set [2], the system named is silica mouse model of pulmonary fibrosis. Description: Silica mouse pulmonary fibrosis model. The format is in vivo, C57BL/6J mice. The conditions noted are these: for collagen fibers and fibrosis regions of lung tissues (Masson staining) / inflammation score / fibrosis score / lung tissue structures (HE staining): 30 d; for inflammation score: HE staining, FIG. 11B; for fibrosis score: Masson staining, FIG. 12B; for lung tissue structures (HE staining): antibody 100 μg i.p. every other day, pirfenidone 300 mg/kg intragastric daily. On the procedure:
as §1, §2

For data set [3], the target named is T1, IL-9-His recombinant protein (UniProt P15248 19-144).
T1 construct: range 19-144; used as coating antigen in the ELISAs; also called IL9 (19-144)-His; not shown: His tag, C-terminal by the vector name
Nature of the data set: ELISA on coated IL-9-His, OD450; unit taken from the x axis, the table prints none.

In data set [4] the target is T2, biotin-conjugated IL-9-Fc (Biotin-IL-9-Fc) (UniProt P15248 19-144, biotin-conjugated (sites not given)).
T2 construct: range 19-144; also called Fc-IL-9 recombinant protein; Fc-IL-9; not shown: Fc tag (Fc2 in the vector name pLVX-Fc2-IL9 (19-144)-Puro)
Nature of the data set: flow cytometry blocking assay (IL9-IL9R blocking determination): serially diluted antibody against the binding of Biotin-IL-9-Fc to 293-IL-9R cells (IL-9R), MFI; unit taken from the x axis, the table prints none.

The target in another data set is T3, IL-9 (Homo sapiens, UniProt P15248).
T3 construct: pcDNA3.4-IL9 (19-144)-His (P15248); His (C); made in house; host or cells: 293F cells (transient transfection)
Description: ELISA binding of humanized antibodies to the target antigen. The conditions noted are these: ELISA of culture supernatant of 293F cells, control chimeric antibody CA1. The procedure: ELISA was conducted according to a standard protocol to determine the affinity of a purified antibody for the IL-9-His recombinant protein. In short, the IL-9-His recombinant protein was diluted with sterile PBS and added at 100 μL/well to a 96-well plate. The plate was incubated at 4° C. overnight and then blocked with a blocking buffer. 100 μL of a purified anti-IL-9 antibody serially diluted was added to the plate, and the plate was incubated for 1 h at room temperature. PBS was added to a control well. The plate was washed with PBST 3 times. Then 100 μL of horseradish peroxidase (HRP)-labeled anti-mouse IgG H&L (BIODRAGON, CAT #BF03001) was added, and the plate was incubated for 1 h at room temperature. The plate was washed with PBST 3 times. Then a chromogenic reaction was conducted with a 3,3′,5,5′-tetramethylbenzidine (TMB) chromogenic solution at room temperature. An OD value in each well was read by a microplate reader. Data was processed with PRISM GraphPad, and curves were plotted. The EC50 value for each candidate antibody was calculated.
Humanized antibody expression vectors carrying a designed heavy-chain or light-chain sequence were transiently transfected into 293F cells in pairs, and then a resulting culture supernatant was collected. According to a standard protocol (with reference to part 5.1 in Example 1), with a human-mouse chimeric antibody CA1 constructed with VH and VL of the original murine antibody as a control, the binding of a humanized antibody to a target antigen was detected by ELISA. The method for ELISA was the same as described in 5.1 of Example 1. […] In the follow-up experiments, the four combinations of VH1−VL2, VH1−VL4, VH2−VL4, and VH3−VL4 (hu.CA1 to hu.CA4) were taken as examples for antibody purification and function testing. […]

The target in a further data set is T4, IL-9 antigen protein (Homo sapiens, UniProt P15248).
T4 construct: pcDNA3.4-IL9 (19-144)-His (P15248) and pLVX-Fc2-IL9 (19-144)-Puro; made in house; host or cells: 293F cells (transient transfection)
Description: ForteBio (BLI) affinity detection. The format is binding. The conditions noted are these: antibody immobilized on Protein A sensor, antigen 7.81-125 nM. On the procedure:
The affinity of a humanized antibody was detected by ForteBio (BLI). The chimeric (as a control) and humanized antibodies were immobilized with a Protein A sensor (SARTORIUS, Cat #18-5010) at an immobilization height of about 1 nm. An antigen protein sample was serially diluted with PBS to 125 nM, 62.5 nM, 31.25 nM, 15.625 nM, 7.81 nM, and 0 nM. An affinity detection procedure was as follows: equilibration for 60 s, binding for 180 s, and dissociation for 180 s.

The target in data set [5] is T1, IL-9-His recombinant protein. Description: BLI (ForteBio), antibody on Protein A sensor, antigen 7.81-125 nM in solution.
Description: The affinity of a humanized antibody was detected by ForteBio (BLI). […] An affinity detection procedure was as follows: equilibration for 60 s, binding for 180 s, and dissociation for 180 s.
The mark [6] stands for this setting: bleomycin model, 21 d, HE staining.

T4 sequence (P15248 19-144): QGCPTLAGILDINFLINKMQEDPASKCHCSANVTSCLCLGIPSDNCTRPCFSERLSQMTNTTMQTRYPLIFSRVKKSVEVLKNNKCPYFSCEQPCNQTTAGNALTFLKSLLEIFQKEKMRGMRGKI
T1 sequence (P15248 19-144 limits assumed, form in doubt): as the sequence (P15248 19-144) above
T2 sequence (P15248 19-144 limits assumed, form in doubt): as the sequence (P15248 19-144) above
T3 sequence (P15248 19-144): as above

On to `Cc1ccc(=O)n(-c2ccccc2)c1` [pirfenidone, reference compound], for which, in data set [1] (bleomycin model, 21 d), the “collagen fibers and fibrosis regions of lung tissues (Masson staining)” value (“collagen fibers and fibrosis regions” below) is given as “significantly reduced”; the fibrosis score entry is on record as “significantly reduce a fibrosis score”; the “lung tissue structures (HE staining)” value is listed as “improved”. Moreover, in data set [1] (setting [6]), the inflammation score entry is listed as “significantly reduce an inflammation score”. In data set [2], the “collagen fibers and fibrosis regions” value is on record as “significantly reduced”; the inflammation score entry is on record as “significantly reduce an inflammation score”; the fibrosis score result is reported as “reduce a fibrosis score”; the “lung tissue structures (HE staining)” value was “improved”.

B1: humanized antibody VH1-VL2 (hu.CA1) (antibody, V domains shown)
VH: EVQLKQSGAEVMKPGASVKVSCKATGYTFTGYWIEWVRLAPGHGLEWMGEILPGSGSTNYNQKFQGRVTFTADTSINTAYMELSRLRSDDTAIYYCARRTYYYGIPEDYWGQGTLVTVSS
VL: DIVMTQSQKFFSTSTGDRVTITCRASQNVGTNVAWHQQKPGQSPKPLIYSASYRYSGVPSRFTGSGSGTDFTLTISNLQSEDFAEYFCQQYNSYPLTFGAGTKLEIK
notes: IgG1 / kappa by the vectors pcDNA3.4-IgG1 and pcDNA3.4-IgKc; also called humanized VH1-VL2 antibody
Consider B1, for which the EC50 in data set [3] stood at 0.035 mg/L. For the same molecule, in data set [1] (bleomycin model, 21 d), the “collagen fibers and fibrosis regions” value was “significantly reduced”; the fibrosis score result is given as “significantly reduce a fibrosis score”; the “lung tissue structures (HE staining)” value is listed as “improved”. Moreover, in data set [1] (setting [6]), the “inflammation score compared with pirfenidone group” value is recorded as “slightly lower than the pirfenidone group” and the inflammation score entry was “significantly reduce an inflammation score”. Besides, the “body weights over time” value in data set [1] (bleomycin model, compared with negative and positive control groups, FIG. 8A) is “changed in a same trend”. For the same molecule, the safety result in data set [1] (conclusion from body weights in bleomycin and silica models) is “excellent safety”. In data set [4], this molecule came in with an EC50 of 5.89 mg/L. Further, the “binding to IL-9” value with IL-9 is “bind to IL-9 with high affinity”. In the data set with IL-9 antigen protein, this molecule came in with a Koff of 0.002535 s⁻¹ and a Kon of 1.066e+06 M⁻¹ s⁻¹. For the same molecule, in data set [5], the Kd is 2.38 nM, the koff was 0.00253 s⁻¹ and the kon stood at 1.07e+06 M⁻¹ s⁻¹. Besides, in data set [2], the “collagen fibers and fibrosis regions” value is recorded as “significantly reduced”; the inflammation score entry is “significantly reduce an inflammation score”; the fibrosis score result is given as “reduce a fibrosis score”; the “lung tissue structures (HE staining)” value is listed as “improved”. Also, the “body weights over time” value in data set [2] (compared with negative and positive control groups, FIG. 8B) was “changed in a same trend”.

B2: CA1: human-mouse chimeric IgG1/kappa antibody with VH and VL of murine 38-D8-C7-G9 (antibody, V domains shown)
VH: EVQLKQSGAELMKPGASVKLSCKATGYTFTGYWIEWVKLRPGHGLEWIGEILPGSGSTNYNEEFKGKATFTADTSSNTAYMQLNSLTTEDSAIYYCARRTYYYGIPEDYWGQGTSVTVSS
VL: DIVMTQSQKFMSTSVGDRVSVTCKASQNVGTNVAWHQQKPGQSPKPLIYSASYRYSGVPDRFTGSGSGTDFTLTISNVQSEDLAEYFCQQYNSYPLTFGAGTKLELK
In the data set with IL-9 antigen protein, B2 registered a Koff of 0.0009336 s⁻¹ and a Kon of 2.13e+06 M⁻¹ s⁻¹.

B3: humanized antibody VH3-VL4 (hu.CA4) (antibody, V domains shown)
VH: EVQLVQSGAEVMKPGASVKVSCKATGYTFTGYWIEWVRLAPGQGLEWMGEILPGSGSTNYNQKLQGRVTFTADTSTNTAYMELRSLRSDDTAIYYCARRTYYYGIPEDYWGQGTLVTVSS
VL: DIVMTQSPKFLSASVGDRVTITCKASQNVGTNVAWHQQKPGQSPKPLIYSASYRYSGVPSRFTGSGSGTDFTLTISNLQPEDFAEYFCQQYNSYPLTFGAGTKLEIK
notes: IgG1 / kappa by the vectors pcDNA3.4-IgG1 and pcDNA3.4-IgKc
For the molecule B3, the EC50 in data set [3] came to 0.0323 mg/L; in data set [4], 11.3 mg/L.

B4: humanized antibody VH1-VL4 (hu.CA2) (antibody, V domains shown)
VH: EVQLKQSGAEVMKPGASVKVSCKATGYTFTGYWIEWVRLAPGHGLEWMGEILPGSGSTNYNQKFQGRVTFTADTSINTAYMELSRLRSDDTAIYYCARRTYYYGIPEDYWGQGTLVTVSS
VL: DIVMTQSPKFLSASVGDRVTITCKASQNVGTNVAWHQQKPGQSPKPLIYSASYRYSGVPSRFTGSGSGTDFTLTISNLQPEDFAEYFCQQYNSYPLTFGAGTKLEIK
notes: IgG1 / kappa by the vectors pcDNA3.4-IgG1 and pcDNA3.4-IgKc; also called humanized VH1-VL4 antibody
On to B4, for which, in data set [3], the EC50 was 0.0127 mg/L. Further, the EC50 in data set [4] came out at 8.18 mg/L. In the data set with IL-9, the “binding to IL-9” value is reported as “bind to IL-9 with high affinity”. Moreover, in the data set with IL-9 antigen protein, the Koff was determined as 0.002206 s⁻¹ and the Kon was 1.165e+06 M⁻¹ s⁻¹. Also, in data set [5], the Kd was 1.89 nM, the off-rate constant (koff) is 0.00221 s⁻¹ and the kon was 1.16e+06 M⁻¹ s⁻¹.

B5: humanized antibody VH2-VL4 (hu.CA3) (antibody, V domains shown)
VH: EVQLVQSGAEVMKPGASVKVSCKATGYTFTGYWIEWVRLAPGQGLEWMGEILPGSGSTNYNQKFQGRVTFTADTSTNTAYMELSSLRSEDTAIYYCARRTYYYGIPEDYWGQGTLVTVSS
VL: DIVMTQSPKFLSASVGDRVTITCKASQNVGTNVAWHQQKPGQSPKPLIYSASYRYSGVPSRFTGSGSGTDFTLTISNLQPEDFAEYFCQQYNSYPLTFGAGTKLEIK
notes: as for B3
As for B5, the EC50 came out at 0.0329 mg/L in data set [3] and 11.7 mg/L in data set [4].

For the origin of these results see patent US20250122278A1, “ANTI-INTERLEUKIN-9 ANTIBODY AND USE THEREOF” (GUANGDONG KEGUANDA PHARMACEUTICAL TECHNOLOGY CO., LTD., priority 2022, published 2025).
